Assay [1] addresses rat homomeric ASIC1b channel (rat) (UniProt P55926).
For assay [2] the target is unchanged. This is another data set of the same source.
For assay [3], the target named is rat homomeric ASIC1a channel (rat, UniProt P55926). Briefly: cell-based or functional assay.
Assay [4] has as its target human homomeric ASIC1a channel (human, UniProt P78348). Briefly: cell-based or functional assay.
For assay [5], the target named is rat heteromeric ASIC1a+ASIC1b channel (rat, UniProt P55926). Kind of assay: cell-based or functional assay.
The target in assay [6] is rat heteromeric ASIC1a+ASIC2a channel (rat, UniProt P55926). Briefly: cell-based or functional assay.
Assay [7] deals with human heteromeric ASIC1a+ASIC2a channel (human, UniProt P78348). Kind of assay: cell-based or functional assay.

Positions count from the first letter of the chain named. Where two headings read alike, the source gives them in different places.

For the molecule ASICalgin-1 (π-Dp1) (peptide), in assay [1], the inhibition of the acid-evoked ASIC current, patch clamp whole cell, COS cells is 650 nM.

B1: ASICalgin-2 (π-Dp2) (peptide)
peptide: LKCFQHGKVVTCHRDMKFCYHNTGMPFRNLKLILQGCSSSCSETENNKCCSTDRCNK
Regarding B1, the inhibition of the acid-evoked ASIC current, patch clamp whole cell, COS cells came out at 650 nM in assay [2]; 49 nM in assay [3]; 127 nM in assay [4]; 223 nM in assay [5]; 308 nM in assay [6]; 308 nM in assay [7].

B2: ASICalgin-1 (π-Dp1) (peptide)
peptide: B1 peptide with F4Y
With B2, the “inhibition of the acid-evoked ASIC current, patch clamp whole cell, COS cells” value was found to be 49 nM in assay [3]; 127 nM in assay [4]; 223 nM in assay [5]; 308 nM in assay [6]; 308 nM in assay [7].

Source of the values: patent publication US20130196923A1, “NOVEL PEPTIDES WHICH HAVE ANALGESIC EFFECTS AND WHICH INHIBIT ASIC CHANNELS” (CENTRE NATIONAL DE LA RESERCHE SCIENTIFIQUE-CNRS, published 2013).
